Kd data for four molecules are collected here from PMC7927077, “Glucose-Binding of Periplasmic Protein GltB Activates GtrS-GltR Two-Component System in Pseudomonas aeruginosa” (Microorganisms, 2021).

Assay [1] addresses 6His-GtrS^LBD, the N-terminal 6His-tagged ligand-binding domain of GtrS (residues 29-199) (P. aeruginosa PAO1) (UniProt Q9HZ47). As to the kind of experiment: SPR; OpenSPR localized SPR; 6His-GtrS^LBD fixed on COOH chip by capture-coupling; 6His-GltB injected at 1000, 500, 250, 125 nM; 50 mM Tris, 50 mM NaCl, pH 7.0, 25 °C; one to one model.
Assay [2] concerns the target 6His-GltB, the N-terminal 6His-tagged GltB (P. aeruginosa PAO1). Briefly: SPR; OpenSPR localized SPR; 6His-GltB fixed on COOH chip by capture-coupling; 6His-PctA^LBD (1500-500 nM) or 6His-PA2788^LBD (500-100 nM) injected; 50 mM Tris, 50 mM NaCl, pH 7.0, 25 °C; one to one model. In general terms: In SPR one partner is held on a chip, and binding of the other changes the refractive index at the surface.

The target in assay [3] is T1, GltB (periplasmic glucose-binding protein) (Pseudomonas aeruginosa, UniProt Q9HZ48).
T1 construct: gene PA3190; 6His-GltB, the N-terminal 6His-tagged GltB
As to the kind of experiment: ITC ([…] °C, one-site model); supported by concentration-dependent thermal shift.

A word on the Kd: it is the equilibrium constant for the complex coming apart. In turn, “6His-GltB, the N-terminal 6His-tagged GltB (natural protein)” registered a Kd in assay [1] of 100 nM. Regarding “6His-PctA^LBD, the N-terminal 6His-tagged ligand-binding domain of PctA (residues 30-278) (from UniProt G3XD24 30-278) (domain or fragment)”, the Kd in assay [2] amounted to 800 nM.

For the molecule `OC[C@H]1OC(O)[C@H](O)[C@@H](O)[C@@H]1O` (stereo partly shown) [glucose], the Kd in assay [3] was 1370 nM.

B1: 6His-PA2788^LBD, the N-terminal 6His-tagged ligand-binding domain of PA2788 (residues 44-179) (domain or fragment)
chain: YLSMSISPETINVAGAQRMLSQKMAREALQLRLGAGDPKALAATIAQYERSAADLDAGNAERNVSRMGAPEIAAQRQKVAQIWGRYRAMLDQVAQPASQVDLRGFSQYSTELLGELNNLVSLMSARADSVQHTQMW
As to B1, the Kd in assay [2] was 400 nM.
